Experimental data taken from the RNAGym collection of RNA variant scans (doi:10.1093/molbev/msab373).

B1: Azoarcus group I ribozyme (parent)
chain: GUGCCUUGCGCCGGGAAACCACGCAAGGGAUGGUGUCAAAUUCGGCGAAACCUAAGCGCCCGCCCGGGCGUAUGGCAACGCCGAGCCAAGCUUCGGCGCCUGCGCCGAUGAAGGUGUAGAGACUAGACGGCACCCACCUAAGGCAAACGCUAUGGUGAAGGCAUAGUCCAGGGAGUGGCGAAAGUCACACAAACCGG

Variants of: B1
Experiment: reverse-splicing fitness (ratio to wild type); higher = more active; in vitro selection; Mg2+ level not given
Procedure, shortened: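 An in vitro group I ribozyme library with randomized positions was T7-transcribed and gel-purified. In triplicate, 10 pmol RNA in EPPS pH 7.5 was reacted with 50 pmoles of a 30-nt RNA substrate for 1 h at 37 °C across several added MgCl2 levels (1–48 mM), then stopped with EDTA. Products were reverse transcribed from a substrate-complementary primer, PCR-amplified and sequenced (HiSeq 4000). Fitness is a variant's read proportion after selection over that before, normalised to wild type.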

Variant | reverse-splicing fitness
A111U A120G A145C C169G | 0.193
A111U A120G A145C C169A U176A | 0.0217
A111U A120G A145C C169A U176C | 0.0194
A111U A120G A145C C169A U176G | 0.00414
A111U A120C C169U U176G | 0.00626
A111U A120C C169U U176A | 0.0322
A111U A120C C169U U176C | 0.0473
A111U A120C C150A C169U U176A | 0.0243
A111U A120C C150A C169U U176C | 0.0196
A111U A120C C150A C169U U176G | 0.00713
A111U A120C A145C U176G | 0.0498
A111U A120C A145C U176C | 0.243
A111U A120C A145C U176A | 0.232
A111U A120C C150A C169A U176C | 0.0133
A111U A120C C150A C169A U176G | 0.00474
A111U A120C C150A C169A U176A | 0.0178
A111U A120C A145U C150G C169G | 0.00662
A111U A120C A145U C150G C169U | 0.0242
A111U A120C A145U C150G C169A | 0.00829
A111U A120C A145G C150A C169G U176C | 0.0246
A111U A120C A145G C150A C169G U176G | 0.00488

Variant | reverse-splicing fitness
A111U A120C A145G C150A C169G U176A | 0.0161
A111U A120C C150G C169U U176A | 0.00853
A111U A120C C150G C169U U176G | 0.00475
A111U A120C C150G C169U U176C | 0.0162
A111U A120G A145C C150G C169A U176C | 0.00757
A111U A120G A145C C150G C169A U176G | 0.00416
A111U A120G A145C C150G C169A U176A | 0.00822
A111U A120G A145G C150A C169A U176A | 0.0188
A111U A120G A145G C150A C169A U176C | 0.0255
A111U A120G A145G C150A C169A U176G | 0.00599
A111U A120C A145U C150A C169G U176C | 0.0106
A111U A120C A145U C150A C169G U176A | 0.0112
A111U A120C A145U C150A C169G U176G | 0.00518
A111U A120C C150G C169G | 0.0073
A111U A120C C150G C169A | 0.00861
A111U A120C C150G C169U | 0.02
A111U A120C A145U | 0.596
A111U A120C A145G | 0.569
A111U A120C A145G U176C | 0.306
A111U A120C A145G U176A | 0.246
A111U A120C A145G U176G | 0.0419

Variant | reverse-splicing fitness
A111U A120G A145C C150G U176G | 0.00302
A111U A120G A145C C150G U176A | 0.00783
A111U A120G A145C C150G U176C | 0.0143
A111U A120C A145U C169U U176A | 0.0319
A111U A120C A145U C169U U176C | 0.0439
A111U A120C A145U C169U U176G | 0.00586
A111U A120C A145U C150G C169A U176A | 0.00913
A111U A120C A145U C150G C169A U176C | 0.00757
A111U A120C A145U C150G C169A U176G | 0.00497
A111U A120C A145U C150A C169U U176A | 0.0185
A111U A120C A145U C150A C169U U176C | 0.0187
A111U A120C A145U C150A C169U U176G | 0.00493
A111U A120C A145G C150G C169G | 0.00738
A111U A120C A145G C150G C169A | 0.0087
A111U A120C A145G C150G C169U | 0.0226
A111U A120C A145G C150A C169U U176G | 0.00691
A111U A120C A145G C150A C169U U176A | 0.0208
A111U A120C A145G C150A C169U U176C | 0.022
A111U A120C A145U C150G C169U U176A | 0.0117
A111U A120C A145U C150G C169U U176C | 0.0166
A111U A120C A145U C150G C169U U176G | 0.00475

Variant | reverse-splicing fitness
A111U A120C A145U C150G C169G U176G | 0.00491
A111U A120C A145U C150G C169G U176C | 0.005
A111U A120C A145U C150G C169G U176A | 0.00683
A111U A120C C150U C169G | 0.00855
A111U A120C C150U C169U | 0.0972
A111U A120C C150U C169A | 0.0121
A111U A120C A145U C169G U176G | 0.00415
A111U A120C A145U C169G U176C | 0.00915
A111U A120C A145U C169G U176A | 0.00823
A111U A120C A145G C169U U176G | 0.00517
A111U A120C A145G C169U U176A | 0.0335
A111U A120C A145G C169U U176C | 0.046
A111U A120G A145C C150G C169G U176C | 0.00636
A111U A120G A145C C150G C169G U176G | 0.00359
A111U A120G A145C C150G C169G U176A | 0.00926
A111U A120G A145C C169U U176C | 0.0453
A111U A120G A145C C169U U176A | 0.0455
A111U A120G A145C C169U U176G | 0.00629
A111U A120C A145G C169G U176A | 0.019
A111U A120C A145G C169G U176G | 0.00461
A111U A120C A145G C169G U176C | 0.0229
